Biological target: the molecule itself
Assay: negative-stain electron microscopy with image classification; aliquots every 3 h from the oscillating KaiA/KaiB/KaiC mixture (50 ng/ul KaiA, 50 ng/ul KaiB, 200 ng/ul KaiC, 1 mM ATP, 30 °C); 0.75% uranyl formate; particles sorted into four meta classes at seven phases

B1: KaiC (natural protein, S. elongatus, UniProt Q79PF4 1-519, looked up)
chain: MTSAEMTSPNNNSEHQAIAKMRTMIEGFDDISHGGLPIGRSTLVSGTSGTGKTLFSIQFLYNGIIEFDEPGVFVTFEETPQDIIKNARSFGWDLAKLVDEGKLFILDASPDPEGQEVVGGFDLSALIERINYAIQKYRARRVSIDSVTSVFQQYDASSVVRRELFRLVARLKQIGATTVMTTERIEEYGPIARYGVEEFVSDNVVILRNVLEGERRRRTLEILKLRGTSHMKGEYPFTITDHGINIFPLGAMRLTQRSSNVRVSSGVVRLDEMCGGGFFKDSIILATGATGTGKTLLVSRFVENACANKERAILFAYEESRAQLLRNAYSWGMDFEEMERQNLLKIVCAYPESAGLEDHLQIIKSEINDFKPARIAIDSLSALARGVSNNAFRQFVIGVTGYAKQEEITGLFTNTSDQFMGAHSITDSHISTITDTIILLQYVEIRGEMSRAINVFKMRGSWHDKAIREFMISDKGPDIKDSFRNFERIISGSPTRITVDEKSELSRIVRGVQEKGPES
notes: KaiC, circadian clock protein of Synechococcus elongatus; In the cycling reaction KaiC oscillates between hypo- and hyperphosphorylated forms (sites T426, S431, T432); also called KaiC hexamer; P-KaiC; source: E. coli, purified
Q: With B1 as the protein, how does the “stoichiometry N” value read?
A: 6

From paper PMC1831719, “Elucidating the Ticking of an In Vitro Circadian Clockwork” (PLoS Biology, 2007)
